For series [1], the system named is HeLa Kyoto. Kind of series: solubility in G1/S (NP-40 vs SDS abundance) (log2 ratio); higher = more soluble. The note with it: cell cycle stage: G1/S.
Series [2] concerns HeLa Kyoto. Kind of series: melting temperature (median over replicates), in situ; higher = more thermally stable.
Series [3] deals with HeLa Kyoto. The series can be described thus: solubility change mitosis vs G1/S (difference of NP-40 vs SDS log2 ratios) (log2 ratio difference); higher = more soluble in mitosis.
Series [4] relates to HeLa Kyoto. The series can be described thus: thermal stability score vs G1/S (z-score of summed log2 fold changes over temperatures); higher = more thermally stable than in G1/S.
[5] abbreviates: cell cycle stage: early G1 (4.5 h after nocodazole release).
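For melting temperature (median over replicates), in situ in this document: HeLa Kyoto cells synchronized by double thymidine or nocodazole block, proteins quantified by TMT10plex mass spectrometry, three independent biological replicates.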
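For solubility change mitosis vs G1/S (difference of NP-40 vs SDS log2 ratios) in this document: synchronized HeLa Kyoto cells (double thymidine block for G1/S, nocodazole release for mitosis), protein amounts in NP-40 versus SDS lysates quantified by mass spectrometry, three biological replicates.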
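For solubility in G1/S (NP-40 vs SDS abundance) in this document: HeLa Kyoto cells arrested at G1/S by double thymidine block, proteins quantified by TMT10plex mass spectrometry in mild NP-40 versus SDS extracts, three biological replicates.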
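For thermal stability score vs G1/S (z-score of summed log2 fold changes over temperatures) in this document: synchronized HeLa Kyoto cells, proteins quantified by TMT10plex mass spectrometry, three biological replicates, mitosis taken 0.5 h after nocodazole release, G1/S directly after double thymidine block.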

Consider “MFFTCGPNEAMVVSGFCRSPPVMVAGGRVFVLPCIQQIQRISLNTLTLNVKSEKVYTRHGVPISVTGIAQVKIQGQNKEMLAAACQMFLGKTEAEIAHIALETLEGHQRAIMAHMTVEEIYKDRQKFSEQVFKVASSDLVNMGISVVSYTLKDIHDDQDYLHSLGKARTAQVQKDARIGEAEAKRDAGIREAKAKQEKVSAQYLSEIEMAKAQRDYELKKAAYDIEVNTRRAQADLAYQLQVAKTKQQIEEQRVQVQVVERAQQVAVQEQEIARREKELEARVRKPAEAERYKLERLAEAEKSQLIMQAEAEAASVRMRGEAEAFAIGARARAEAEQMAKKAEAFQLYQEAAQLDMLLEKLPQVAEEISGPLTSANKITLVSSGSGTMGAAKVTGEVLDILTRLPESVERLTGVSISQVNHKPLRTA [FLOT1]”, for which the “solubility in G1/S (log2)” value in the series on HeLa Kyoto [1] is -0.837. For the same sequence, the melting temperature in the series on HeLa Kyoto [2] (cell cycle stage: G1/S) worked out at 55.3 °C; with HeLa Kyoto [2] (cell cycle stage: mitosis), 53.7 °C. For the same sequence, in the series with HeLa Kyoto [3], the “solubility change mitosis (log2)” value worked out at 0.121. The thermal stability score is -2.16 in the series with HeLa Kyoto [4] (setting [5]) and 0.224 in the series with HeLa Kyoto [4] (cell cycle stage: mitosis).
Take “MSPKRIAKRRSPPADAIPKSKKVKVSHRSHSTEPGLVLTLGQGDVGQLGLGENVMERKKPALVSIPEDVVQAEAGGMHTVCLSKSGQVYSFGCNDEGALGRDTSVEGSEMVPGKVELQEKVVQVSAGDSHTAALTDDGRVFLWGSFRDNNGVIGLLEPMKKSMVPVQVQLDVPVVKVASGNDHLVMLTADGDLYTLGCGEQGQLGRVPELFANRGGRQGLERLLVPKCVMLKSRGSRGHVRFQDAFCGAYFTFAISHEGHVYGFGLSNYHQLGTPGTESCFIPQNLTSFKNSTKSWVGFSGGQHHTVCMDSEGKAYSLGRAEYGRLGLGEGAEEKSIPTLISRLPAVSSVACGASVGYAVTKDGRVFAWGMGTNYQLGTGQDEDAWSPVEMMGKQLENRVVLSVSSGGQHTVLLVKDKEQS [RCC1]”: the “solubility in G1/S (log2)” value in the series with HeLa Kyoto [1] is -0.0854. Besides, the melting temperature with HeLa Kyoto [2] (cell cycle stage: G1/S) was 48 °C; in the series with HeLa Kyoto [2] (cell cycle stage: mitosis) it was 49.1 °C. Also, the “solubility change mitosis (log2)” value in the series on HeLa Kyoto [3] stood at 0.0534. The thermal stability score in the series with HeLa Kyoto [4] (setting [5]) is 1.88; with HeLa Kyoto [4] (cell cycle stage: mitosis), 3.04.
As for “MGDMANNSVAYSGVKNSLKEANHDGDFGITLAELRALMELRSTDALRKIQESYGDVYGICTKLKTSPNEGLSGNPADLERREAVFGKNFIPPKKPKTFLQLVWEALQDVTLIILEIAAIVSLGLSFYQPPEGDNALCGEVSVGEEEGEGETGWIEGAAILLSVVCVVLVTAFNDWSKEKQFRGLQSRIEQEQKFTVIRGGQVIQIPVADITVGDIAQVKYGDLLPADGILIQGNDLKIDESSLTGESDHVKKSLDKDPLLLSGTHVMEGSGRMVVTAVGVNSQTGIIFTLLGAGGEEEEKKDEKKKEKKNKKQDGAIENRNKAKAQDGAAMEMQPLKSEEGGDGDEKDKKKANLPKKEKSVLQGKLTKLAVQIGKAGLLMSAITVIILVLYFVIDTFWVQKRPWLAECTPIYIQYFVKFFIIGVTVLVVAVPEGLPLAVTISLAYSVKKMMKDNNLVRHLDACETMGNATAICSDKTGTLTMNRMTVVQAYINEKHYKKVPEPEAIPPNILSYLVTGISVNCAYTSKILPPEKEGGLPRHVGNKTECALLGLLLDLKRDYQDVRNEIPEEALYKVYTFNSVRKSMSTVLKNSDGSYRIFSKGASEIILKKCFKILSANGEAKVFRPRDRDDIVKTVIEPMASEGLRTICLAFRDFPAGEPEPEWDNENDIVTGLTCIAVVGIEDPVRPEVPDAIKKCQRAGITVRMVTGDNINTARAIATKCGILHPGEDFLCLEGKDFNRRIRNEKGEIEQERIDKIWPKLRVLARSSPTDKHTLVKGIIDSTVSDQRQVVAVTGDGTNDGPALKKADVGFAMGIAGTDVAKEASDIILTDDNFTSIVKAVMWGRNVYDSISKFLQFQLTVNVVAVIVAFTGACITQDSPLKAVQMLWVNLIMDTLASLALATEPPTESLLLRKPYGRNKPLISRTMMKNILGHAFYQLVVVFTLLFAGEKFFDIDSGRNAPLHAPPSEHYTIVFNTFVLMQLFNEINARKIHGERNVFEGIFNNAIFCTIVLGTFVVQIIIVQFGGKPFSCSELSIEQWLWSIFLGMGTLLWGQLISTIPTSRLKFLKEAGHGTQKEEIPEEELAEDVEEIDHAERELRRGQILWFRGLNRIQTQIRVVNAFRSSLYEGLEKPESRSSIHNFMTHPEFRIEDSEPHIPLIDDTDAEDDAPTKRNSSPPPSPNKNNNAVDSGIHLTIEMNKSATSSSPGSPLHSLETSL [ATP2B1]”, the “solubility in G1/S (log2)” value in the series with HeLa Kyoto [1] was -0.179. Further, the results for the melting temperature with HeLa Kyoto [2] (cell cycle stage: G1/S) and in the series with HeLa Kyoto [2] (cell cycle stage: mitosis) were 54.1 °C and 53.4 °C, respectively. Further, the “solubility change mitosis (log2)” value in the series with HeLa Kyoto [3] was -0.103. Besides, the thermal stability score in the series on HeLa Kyoto [4] (setting [5]) was 0.336; in the series with HeLa Kyoto [4] (cell cycle stage: mitosis), 1.72.
Regarding “MSGCGLFLRTTAAARACRGLVVSTANRRLLRTSPPVRAFAKELFLGKIKKKEVFPFPEVSQDELNEINQFLGPVEKFFTEEVDSRKIDQEGKIPDETLEKLKSLGLFGLQVPEEYGGLGFSNTMYSRLGEIISMDGSITVTLAAHQAIGLKGIILAGTEEQKAKYLPKLASGEHIAAFCLTEPASGSDAASIRSRATLSEDKKHYILNGSKVWITNGGLANIFTVFAKTEVVDSDGSVKDKITAFIVERDFGGVTNGKPEDKLGIRGSNTCEVHFENTKIPVENILGEVGDGFKVAMNILNSGRFSMGSVVAGLLKRLIEMTAEYACTRKQFNKRLSEFGLIQEKFALMAQKAYVMESMTYLTAGMLDQPGFPDCSIEAAMVKVFSSEAAWQCVSEALQILGGLGYTRDYPYERILRDTRILLIFEGTNEILRMYIALTGLQHAGRILTTRIHELKQAKVSTVMDTVGRRLRDSLGRTVDLGLTGNHGVVHPSLADSANKFEENTYCFGRTVETLLLRFGKTIMEEQLVLKRVANILINLYGMTAVLSRASRSIRIGLRNHDHEVLLANTFCVEAYLQNLFSLSQLDKYAPENLDEQIKKVSQQILEKRAYICAHPLDRTC [ACAD9]”, the “solubility in G1/S (log2)” value in the series with HeLa Kyoto [1] was -0.06. Further, the melting temperature with HeLa Kyoto [2] (cell cycle stage: G1/S) stood at 54.6 °C; in the series with HeLa Kyoto [2] (cell cycle stage: mitosis) it was 54.7 °C. In addition, in the series with HeLa Kyoto [3], the “solubility change mitosis (log2)” value is -0.164. Also, the thermal stability score in the series on HeLa Kyoto [4] (setting [5]) is 4.01; in the series with HeLa Kyoto [4] (cell cycle stage: mitosis) it was 3.04.

The values are drawn from the supplement of paper PMC5998384.
